Results from the supplement of paper PMC9112550, “Optimization of the antimicrobial peptide Bac7 by deep mutational scanning” (BMC Biology, 2022).

System: Escherichia coli TOP10
Assay: shrunken log2 fold change of peptide-encoding DNA abundance (4.5 h post-induction vs induction); higher = less antimicrobial activity (less host growth inhibition)
Details: time post-induction: 4.5 h; library: site-saturation at positions 5, 18, 19, 20
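Note: peptides expressed intracellularly from a pBAD plasmid library in pooled LB shake-flask culture, induced with 0.3% L-arabinose, DNA abundance read by NGS, three biological replicates, DESeq2 with apeglm shrinkage.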

Sequence	shrunken log2 fold change
RRIRMRPPRLPRPRPRPWQRPRP	0.179
RRIRMRPPRLPRPRPRPFDKPRP	-0.0136
RRIRRRPPRLPRPRPRPPVAPRP	0.769
RRIRPRPPRLPRPRPRPCGYPRP	-0.136
RRIRGRPPRLPRPRPRPVIEPRP	0.599
RRIRWRPPRLPRPRPRPILAPRP	0.364
RRIRIRPPRLPRPRPRPTGDPRP	0.109
RRIRQRPPRLPRPRPRPPRAPRP	0.552
RRIRDRPPRLPRPRPRPPLLPRP	0.252
RRIRSRPPRLPRPRPRPAMHPRP	-0.0199
RRIRERPPRLPRPRPRPMSVPRP	-0.158
RRIRWRPPRLPRPRPRPHDWPRP	0.15
RRIRMRPPRLPRPRPRPVVWPRP	1.57
RRIRLRPPRLPRPRPRPFKAPRP	0.181
RRIRVRPPRLPRPRPRPESHPRP	-0.138
RRIRPRPPRLPRPRPRPYGLPRP	-0.857
RRIRIRPPRLPRPRPRPIATPRP	-0.471
RRIRFRPPRLPRPRPRPFGWPRP	0.0193
RRIRLRPPRLPRPRPRPQIWPRP	-0.166
RRIRMRPPRLPRPRPRPGQWPRP	0.204
RRIRCRPPRLPRPRPRPGSWPRP	0.439
RRIRKRPPRLPRPRPRPPAWPRP	0.602

Sequence	shrunken log2 fold change
RRIRIRPPRLPRPRPRPYAIPRP	-0.0122
RRIRHRPPRLPRPRPRPPYIPRP	-0.175
RRIRHRPPRLPRPRPRPFRQPRP	0.0583
RRIRMRPPRLPRPRPRPIQFPRP	-0.318
RRIRHRPPRLPRPRPRPRDCPRP	-0.0851
RRIRPRPPRLPRPRPRPVKVPRP	0.161
RRIRRRPPRLPRPRPRPHLQPRP	-0.0319
RRIRTRPPRLPRPRPRPASDPRP	-0.141
RRIRNRPPRLPRPRPRPPMIPRP	0.102
RRIRCRPPRLPRPRPRPLFGPRP	-0.0673
RRIRTRPPRLPRPRPRPFLGPRP	-0.0873
RRIRNRPPRLPRPRPRPPICPRP	0.0224
RRIRHRPPRLPRPRPRPMPHPRP	-0.131
RRIRYRPPRLPRPRPRPGGMPRP	-0.297
RRIRCRPPRLPRPRPRPWLQPRP	-0.199
RRIRMRPPRLPRPRPRPGSEPRP	0.952
RRIRLRPPRLPRPRPRPIYVPRP	-0.0939
RRIRERPPRLPRPRPRPWMIPRP	-0.616
RRIRWRPPRLPRPRPRPGRRPRP	0.106
RRIRNRPPRLPRPRPRPFDIPRP	-0.701
RRIRQRPPRLPRPRPRPDQIPRP	0.00408
RRIRWRPPRLPRPRPRPRQNPRP	0.448

Sequence	shrunken log2 fold change
RRIRRRPPRLPRPRPRPIKQPRP	0.197
RRIRERPPRLPRPRPRPEITPRP	-0.045
RRIRMRPPRLPRPRPRPDHIPRP	-0.000611
RRIRCRPPRLPRPRPRPEKHPRP	0.00607
RRIRGRPPRLPRPRPRPIFKPRP	0.359
RRIRCRPPRLPRPRPRPSFSPRP	-0.571
RRIRYRPPRLPRPRPRPCCVPRP	-0.422
RRIRSRPPRLPRPRPRPCGNPRP	0.1
RRIRGRPPRLPRPRPRPICEPRP	0.396
RRIRPRPPRLPRPRPRPKHEPRP	0.0756
RRIRFRPPRLPRPRPRPPSAPRP	0.703
RRIRGRPPRLPRPRPRPKLEPRP	0.507
RRIRQRPPRLPRPRPRPHDTPRP	-0.152
RRIRQRPPRLPRPRPRPEQFPRP	0.0588
RRIRMRPPRLPRPRPRPDCWPRP	1.96
RRIRARPPRLPRPRPRPAEPPRP	0.443
RRIRSRPPRLPRPRPRPCNKPRP	-0.225
RRIRDRPPRLPRPRPRPEWHPRP	0.623
RRIRTRPPRLPRPRPRPRTSPRP	0.098
RRIRWRPPRLPRPRPRPQSVPRP	0.119
RRIRWRPPRLPRPRPRPGGMPRP	0.286
RRIRERPPRLPRPRPRPPIAPRP	0.13

Sequence	shrunken log2 fold change
RRIRCRPPRLPRPRPRPWRVPRP	0.149
RRIRMRPPRLPRPRPRPNRHPRP	0.0213
RRIRYRPPRLPRPRPRPPTDPRP	-0.181
RRIRCRPPRLPRPRPRPPMGPRP	0.155
RRIRRRPPRLPRPRPRPWGSPRP	-0.186
RRIRQRPPRLPRPRPRPIHDPRP	0.0242
RRIRRRPPRLPRPRPRPDKNPRP	0.0344
RRIRERPPRLPRPRPRPLFPPRP	-0.264
RRIRNRPPRLPRPRPRPNVKPRP	-0.324
RRIRQRPPRLPRPRPRPWCSPRP	-0.0146
RRIRFRPPRLPRPRPRPRCYPRP	-0.473
RRIRNRPPRLPRPRPRPQNEPRP	-0.331
RRIRERPPRLPRPRPRPVEAPRP	0.21
RRIRQRPPRLPRPRPRPPDVPRP	0.124
RRIRTRPPRLPRPRPRPGETPRP	-0.105
RRIRYRPPRLPRPRPRPVFVPRP	-0.458
RRIRGRPPRLPRPRPRPLFSPRP	0.113
RRIRIRPPRLPRPRPRPWTMPRP	-0.163
RRIRSRPPRLPRPRPRPTQNPRP	0.375
RRIRNRPPRLPRPRPRPWKEPRP	-0.59
RRIRVRPPRLPRPRPRPHTAPRP	-0.00836
RRIRMRPPRLPRPRPRPQSSPRP	-0.0185

Sequence	shrunken log2 fold change
RRIRIRPPRLPRPRPRPTCDPRP	-0.369
RRIRTRPPRLPRPRPRPTNLPRP	-0.0724
RRIRDRPPRLPRPRPRPAGLPRP	0.0252
RRIRPRPPRLPRPRPRPLNNPRP	-0.541
RRIRRRPPRLPRPRPRPNACPRP	-0.00291
RRIRNRPPRLPRPRPRPYYEPRP	-0.793
RRIRARPPRLPRPRPRPYMKPRP	-0.366
RRIRWRPPRLPRPRPRPMWQPRP	0.016
RRIRMRPPRLPRPRPRPLWVPRP	0.0224
RRIRDRPPRLPRPRPRPNHAPRP	-0.31
RRIRERPPRLPRPRPRPNNNPRP	-0.977
RRIRWRPPRLPRPRPRPQIIPRP	-0.805
RRIRDRPPRLPRPRPRPKKGPRP	0.26
RRIRIRPPRLPRPRPRPCVKPRP	-0.828
RRIRDRPPRLPRPRPRPLIHPRP	-0.0249
RRIRSRPPRLPRPRPRPEGVPRP	0.552
RRIRERPPRLPRPRPRPIFTPRP	-0.195
RRIRDRPPRLPRPRPRPGRMPRP	0.174
RRIRDRPPRLPRPRPRPYPMPRP	-0.348
RRIRNRPPRLPRPRPRPCDMPRP	0.0184
RRIRHRPPRLPRPRPRPASMPRP	0.0822
